Data on four molecules can be found in paper PMC4410877 (Biochemistry, 2009).

The conditions of data set [1]: cited from earlier work.
The conditions of data set [2]: 10 °C; cited from earlier work.
In a further data set the test system is cofilin. To be noted: cited from earlier work.
For a further data set, the system named is actin. Particulars: literature statement, no reference printed at this sentence; cited from earlier work.
Data set [3] deals with T1, αTM1b_(1-19)Zip (1bNTD), unlabeled synthetic peptide (rat | yeast).
T1 chain: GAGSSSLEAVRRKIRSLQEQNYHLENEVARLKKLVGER
Kind of data set: circular dichroism titration.

Ends that are not written are not given here.

Regarding “9aCTD: residues 251-284 of rat striated α-tropomyosin encoded by exon 8 and exon 9a with GCG at the N-terminus (GCGKSIDDLEDELYAQKLKYKAISEELDHALNDMTSI; not fully specified; UniProt P04692 251-284, looked up, fragment)”, the “TM of unfolding of 9aCTD” value in data set [1] is ~ 25 °C. The “helical content of 9aCTD” value in data set [2] is given as “greater than 75%”.
Turning to Tropomyosin, the “inhibition of cofilin binding and severing” value in the data set with cofilin is recorded as “competitive inhibitor”.
For “Cofilin: actin filament binding and severing protein”, in the data set on actin, the “affinity of cofilin for the actin filament” value is “high affinity”.
With GCGGSIDDLEEKVAHAKEENLSMHQMLHQTLLELNNM (also: disulfide cross-link between two chains through Cys2 (dimer)) [α-TM9d_(252-284) (9dCTD), disulfide cross-linked], in data set [3], the Kd is below 0.5 µM and the “stoichiometry N” value is 0.94 ± 0.03 molar ratio.

Broadly, the Kd is the free concentration of one partner at which half of the binding sites on the other are occupied at equilibrium, for simple one-to-one binding. What is called stoichiometry N is the number of molecules, sites or subunits per partner or assembly.
